In article PMC12637021, “Talin–tensin3 interactions regulate fibrillar adhesion formation and tensin3 phase separation” (The Journal of Cell Biology, 2025):
Entries after “also recorded” stand apart in the source; their conditions may differ.

B1: TNS3-WT: wild-type tensin3 (Homo sapiens), N-terminally labeled with GFP or mCherry, expressed in cells (protein, UniProt Q68CZ2 1-1445, looked up)
chain: MEEGHGLDLTYITERIIAVSFPAGCSEESYLHNLQEVTRMLKSKHGDNYLVLNLSEKRYDLTKLNPKIMDVGWPELHAPPLDKMCTICKAQESWLNSNLQHVVVIHCRGGKGRIGVVISSYMHFTNVSASADQALDRFAMKKFYDDKVSALMQPSQKRYVQFLSGLLSGSVKMNASPLFLHFVILHGTPNFDTGGVCRPFLKLYQAMQPVYTSGIYNVGPENPSRICIVIEPAQLLKGDVMVKCYHKKYRSATRDVIFRLQFHTGAVQGYGLVFGKEDLDNASKDDRFPDYGKVELVFSATPEKIQGSEHLYNDHGVIVDYNTTDPLIRWDSYENLSADGEVLHTQGPVDGSLYAKVRKKSSSDPGIPGGPQAIPATNSPDHSDHTLSVSSDSGHSTASARTDKTEERLAPGTRRGLSAQEKAELDQLLSGFGLEDPGSSLKEMTDARSKYSGTRHVVPAQVHVNGDAALKDRETDILDDEMPHHDLHSVDSLGTLSSSEGPQSAHLGPFTCHKSSQNSLLSDGFGSNVGEDPQGTLVPDLGLGMDGPYERERTFGSREPKQPQPLLRKPSVSAQMQAYGQSSYSTQTWVRQQQMVVAHQYSFAPDGEARLVSRCPADNPGLVQAQPRVPLTPTRGTSSRVAVQRGVGSGPHPPDTQQPSPSKAFKPRFPGDQVVNGAGPELSTGPSPGSPTLDIDQSIEQLNRLILELDPTFEPIPTHMNALGSQANGSVSPDSVGGGLRASSRLPDTGEGPSRATGRQGSSAEQPLGGRLRKLSLGQYDNDAGGQLPFSKCAWGKAGVDYAPNLPPFPSPADVKETMTPGYPQDLDIIDGRILSSKESMCSTPAFPVSPETPYVKTALRHPPFSPPEPPLSSPASQHKGGREPRSCPETLTHAVGMSESPIGPKSTMLRADASSTPSFQQAFASSCTISSNGPGQRRESSSSAERQWVESSPKPMVSLLGSGRPTGSPLSAEFSGTRKDSPVLSCFPPSELQAPFHSHELSLAEPPDSLAPPSSQAFLGFGTAPVGSGLPPEEDLGALLANSHGASPTPSIPLTATGAADNGFLSHNFLTVAPGHSSHHSPGLQGQGVTLPGQPPLPEKKRASEGDRSLGSVSPSSSGFSSPHSGSTISIPFPNVLPDFSKASEAASPLPDSPGDKLVIVKFVQDTSKFWYKADISREQAIAMLKDKEPGSFIVRDSHSFRGAYGLAMKVATPPPSVLQLNKKAGDLANELVRHFLIECTPKGVRLKGCSNEPYFGSLTALVCQHSITPLALPCKLLIPERDPLEEIAESSPQTAANSAAELLKQGAACNVWYLNSVEMESLTGHQAIQKALSITLVQEPPPVSTVVHFKVSAQGITLTDNQRKLFFRRHYPVNSVIFCALDPQDRKWIKDGPSSKVFGFVARKQGSATDNVCHLFAEHDPEQPASAIVNFVSKVMIGSPKKV
modifications: full-length N-terminal GFP or mCherry tag
notes: wild-type tensin3 (Homo sapiens), N-terminally labeled with GFP or mCherry, expressed in cells
B2: endogenous tensin3: endogenous tensin3 in primary human foreskin fibroblasts (protein, UniProt Q68CZ2 1-1445, looked up)
Tensin-3: B1 chain

Key:
[1] = system: active β1 integrin, TLNKO cells; test: 9EG7-positive (active β1 integrin) adhesions, TLNKO cells; format: cell-based; conditions: co-expressed with GFP-TLN1, vs talin1 and vector control
Method: (§1) Cells were fixed in 4% paraformaldehyde (PFA, Sigma-Aldrich), which had been prewarmed to 37°C for 15 min before being washed three times with PBS. For immunofluorescence staining, cells were permeabilized with 0.5% Triton X-100 (Sigma-Aldrich) at room temperature for 5 min before being washed three times with PBS. Blebbistatin (Tocris Bioscience) was diluted in dimethyl sulfoxide (Sigma-Aldrich) and used at a final concentration of 50 μM. […]
(§2) Analysis of cell adhesion sites, FN fibrils, and LLPS condensates was performed using FIJI/ImageJ (version 1.54f) software ([Schindelin et al., 2012]). […] Prior to adhesion quantification, the images were background-subtracted using a rolling ball algorithm, followed by thresholding of adhesion sites and Analyse Particles functions in FIJI/ImageJ to quantify adhesions. Adhesion sites with sizes between 0.4 and 10 μm^2 were counted, except for adhesions in blebbistatin-treated cells, which were counted with sizes between 0.2 and 4 μm^2. […]

U2OS TNS3KO cells [2] = test: adhesion stability under blebbistatin, U2OS TNS3KO cells; format: cell-based, human; conditions: blebbistatin 50 µM
Method: (§3) Cells were fixed in 4% paraformaldehyde (PFA, Sigma-Aldrich), which had been prewarmed to 37°C for 15 min before being washed three times with PBS. For immunofluorescence staining, cells were permeabilized with 0.5% Triton X-100 (Sigma-Aldrich) at room temperature for 5 min before being washed three times with PBS. Blebbistatin (Tocris Bioscience) was diluted in dimethyl sulfoxide (Sigma-Aldrich) and used at a final concentration of 50 μM. The following primary antibodies were diluted in 1% bovine serum albumin (BSA, Sigma-Aldrich): mouse anti-α5 integrin (SNAKA51, 1:100, NBP2-50146; Novus Biologicals), rat anti-β1 integrin (9EG7, 1:200; 553715; BD Biosciences), mouse anti-FN (IST-9, 1:100, ab6328; Abcam), rabbit anti-tensin3 (1:200, HPA055338; Atlas), mouse anti-EEA1 (1:500, 68065-1-IG; Proteintech), mouse anti-LAMP1 (1:200, ab320851; Abcam), mouse anti-paxillin (349, 1:400, mab3060; Sigma-Aldrich), rabbit anti-talin1 (1:200, 82856-4-RR; Proteintech), mouse anti-vinculin (hVin1, 1:500, V9264; Sigma-Aldrich), rabbit anti-KANK2 (1:100, HPA015643; Sigma-Aldrich), rabbit anti-kindlin2 (1:100, 11453-1-AP; Proteintech), rabbit anti-GIT1 (1:200, 26247-1-AP; Proteintech), mouse anti-phosphotyrosine (4G10, 1:200, 05-321X; Sigma-Aldrich), rabbit anti-G3BP1 (1:600, 13057-2-AP; Proteintech), rabbit anti-TDP43 (1:400, 10782-2-AP; Proteintech), and rabbit anti-GIGYF1 (1:400, ab121784; Abcam). […]
as §2

NIH3T3 cells [3] = test: adhesion stability under blebbistatin, NIH3T3 cells; format: cell-based, mouse; conditions: blebbistatin 50 µM, 60 min; n = 64 (WT), 49 (L702E), 62 (ΔPTB), 71 (Cterm) cells
Method: as §1, §2

NIH3T3 cells [4] = test: client protein recruitment to tensin3 condensates; format: cell-based, mouse; conditions: co-expressed or endogenous
Excerpt: Since the observed tensin3 condensates were derived from adhesion sites in a talin-regulated mechanosensitive manner, we wondered whether these condensates contain other adhesion components or signaling molecules. To address this question, we examined a selection of cell–matrix adhesion proteins that have been reported by others to be present in LLPS condensates. These proteins include LIMD1 ([Wang et al., 2021]), kindlin2 ([Hsu et al., 2023]), talin ([Hsu et al., 2023]; [Litschel et al., 2024]), KANK ([Guo et al., 2023]), tensin1 ([Lee et al., 2023]), vinculin ([Litschel et al., 2024]), and GIT1 ([Zhu et al., 2020]). We added the actin regulatory RhoGAP DLC1 to this selection, as it is known to bind tensin ([Liao et al., 2006]; [Shih et al., 2015]), and the RNA regulatory protein GIGYF1, which we had previously identified alongside many of the aforementioned proteins in tensin BioID datasets ([Atherton et al., 2022]). We also added stress granule components G3BP1 ([Tourrière et al., […]]) and TDP-43 ([Colombrita et al., 2009]). These proteins were either co-expressed as fluorescently tagged proteins (Fig. S4 I) or, where antibodies were available, probed endogenously in cells that formed GFP-TNS3 condensates (Fig. 8 A).
as §3

TLNKO cells = test: cell spreading of TLNKO cells; format: cell-based; conditions: tensin3 expressed alone in TLNKO cells
Method: as §3

[5] = system: active β1 integrin, U2OS TNS3KO cells; test: β1 integrin-positive adhesions, U2OS TNS3KO cells; format: cell-based, human; conditions: FN-coated, overnight; 9EG7
Method: as §1, §2

NIH3T3 cells [6] = test: condensates on soft vs stiff PDMS, NIH3T3 cells; format: cell-based, mouse; conditions: 1.5 kPa vs 28 kPa FN-coated PDMS, overnight
Method: (§4) Imaging dishes equipped with 40 µm-thick PDMS substrates (1.5 and 28 kPa) were purchased from ibidi. PDMS dishes were coated with 30 μg/ml FN for 1 h, followed by three washes with PBS. Dishes were incubated with DMEM for 10 min to equilibrate before cells were plated and incubated overnight at 37°C.
(§5) To establish a correlation between tensin3 expression and condensation formation, a maximum intensity Z-projection was performed on Z-stack images of NIH3T3 cells (step depth 0.2 μm). The integrated fluorescence intensity was measured by normalizing the mean pixel intensity of each cell to the average of all values in cells expressing mCh-TNS3. To measure the condensate coverage in NIH3T3 cells, the images were background-subtracted (rolling ball) and then thresholded. This was followed by the Analyse Particles function in FIJI/ImageJ to select round condensate structures (circularity 0.7–1.0) ([Bussi et al., 2023]; [Dumelie et al., 2024]) with a size larger than 0.1 μm^2. The same settings were applied to quantify the number of condensates in NIH3T3 and HFF cells.

U2OS TNS3KO cells [7] = test: α5 integrin-positive FBs, rescue of TNS3KO cells; format: cell-based, human; conditions: FN-coated, overnight; SNAKA51 antibody
Method: as §1, §2

NIH3T3 cells [8] = test: tensin3 condensate formation, NIH3T3 cells; format: cell-based, mouse; conditions: n = 181 cells (WT), 168 cells (L702E)
Method: as §5
The percentage of NIH3T3 cells transfected with mCh-TNS3 that form phase-separated condensates was quantified manually in images (610 × 499 μm) acquired with a 20× objective. To quantify the mean radius (R) of the condensates, the area covered by the condensates was divided by the number of condensates for each cell to obtain the mean size (A) of the condensates, followed by the formula of R = √(A/3.14).

β1 integrin, TLNKO cells = test: β1 integrin activation by flow cytometry, TLNKO cells; format: cell-based
Method: To measure the level of β1 integrin activation, TLNKO cells were transfected in a 6-well plate for flow cytometry analysis. Cells were collected, washed, and resuspended in ice-cold staining buffer (1% BSA in PBS) before incubation with 9EG7 antibody (diluted 1:200 in staining buffer) for 1 h on ice. The cells were then washed three times with staining buffer. Alexa Fluor Plus 647 goat anti-rat (1:500 dilution in staining buffer, Invitrogen) secondary antibody was used to incubate the cells for 45 min on ice, before being washed twice with staining buffer and once with PBS. The cells were then fixed with 4% PFA for 15 min before a final wash with PBS. Flow cytometry analysis was performed using a Fortessa system (BD Biosciences) and FlowJo software.

HFF cells = test: endogenous tensin3 condensates on soft vs stiff PDMS, HFF cells; format: cell-based, human; conditions: 1.5 kPa vs 28 kPa FN-coated PDMS, overnight; n = 33 and 40 cells
Method: as §4, §5

Molecule	fold change in 9EG7-positive adhesion sites [1]	subcellular localization of construct under blebbistatin (U2OS TNS3KO cells [2])	adhesion stability under actomyosin inhibition (U2OS TNS3KO cells [2]; 60 min)	construct-positive adhesions after blebbistatin (NIH3T3 cells [3])	proteins detected in condensates (NIH3T3 cells [4])	proteins absent from condensates (NIH3T3 cells [4]; listed as GFP-TNS3)	rescue of cell spreading (TLNKO cells)	rescue of adhesion formation [5]	condensates on soft vs stiff substrate (NIH3T3 cells [6])	α5 integrin-positive adhesions (U2OS TNS3KO cells [7])	Spearman's r, expression level vs condensate coverage (NIH3T3 cells [8])	integrin activation, flow cytometry (β1 integrin, TLNKO cells; co-expressed with GFP-TLN1, vs mCh-vector, triplicate)	rescue of integrin activation (β1 integrin, TLNKO cells; tensin3 expressed alone in TLNKO cells, 9EG7)	increase in tensin3 spheres on soft vs stiff substrate (HFF cells) [fold]
B1	fivefold increase in adhesion sites	remained in adhesion structures	remained present despite actomyosin inhibition	largely remain after blebbistatin treatment	talin1 and talin2, vinculin, tensin1, and LIMD1, together with the microtubule-targeting protein KANK1 and KANK2, and DLC1 and GIGYF1	kindlin2 and GIT1, which regulate membrane protrusion ([Böttcher et al., 2017]; [Manabe et al., 2002]), were absent; also recorded: negative for G3BP1, TDP-43 (Fig. S4 J), or tyrosine phosphorylation	did not rescue cell spreading	fully rescued adhesion formation	significant twofold increase	α5 integrin-positive adhesions in the peripheral and central areas of the cells	0.8773	increased integrin activation	did not rescue cell spreading (Fig. S3 A) or integrin activation	–
B2	–	–	–	–	–	–	–	–	–	–	–	–	–	3.6
